The record followed here is patent US10201586B2 (dated 2019).

*1 amine or outer side, *2 acyl side, *3 side chain or, on linkers, in order; H or OH if unused. Where a SMILES comes first, the peptide text is derived from it. Bridges are numbered along the chain shown (N, C = ends). [ ]: non-standard residue; d: D form. The star is where a group is joined. Succinimide(1-Et,3-yl) = CCN1C(=O)CC(*)C1=O; Bta = N[C@@H](Cc1csc2ccccc12)C(=O)O; Cysteamide = C(CS[*:3])N[*:1]; Tle = CC(C)(C)[C@H](N)C(=O)O; β3hL = CC(C)C[C@H](N)CC(=O)O; hCys = N[C@@H](CCS)C(=O)O; Aib = CC(C)(N)C(=O)O

Series [1] addresses T1, TFPI (Homo sapiens, UniProt P10646). Put plainly: Extrinsic Tenase Inhibition assay | % Inhibition @ 2.5µM.
Series [2] has as its target T1, TFPI. Briefly: % Inhibition @ 2.5µM.
The target of series [3] is T1, TFPI. Put plainly: IC50 Mean (nM].
Target sequence in this assay (P10646 29-304 limits assumed): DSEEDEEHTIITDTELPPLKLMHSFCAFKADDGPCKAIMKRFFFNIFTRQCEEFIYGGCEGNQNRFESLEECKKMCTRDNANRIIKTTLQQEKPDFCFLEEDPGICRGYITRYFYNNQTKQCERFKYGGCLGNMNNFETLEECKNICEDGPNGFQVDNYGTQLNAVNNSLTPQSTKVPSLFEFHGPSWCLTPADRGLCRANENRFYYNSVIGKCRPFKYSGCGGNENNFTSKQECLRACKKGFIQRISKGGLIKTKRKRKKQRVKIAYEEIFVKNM
Series [4] is described as follows: plasma stability in human plasma. Format: in vitro ADME. The conditions noted are these: for remaining at 24 h: 24 hour incubation in human plasma, quantitative ELISA.
Series [5] has as its target Tissue Factor Pathway Inhibitor (TFPI) (Homo sapiens, UniProt P10646). Put plainly: IC50 ELISA | IC50 [nM].
In series [6] the target is T1, TFPI. Briefly: IC50 [nM].
Target sequence in this assay (P10646 29-304 limits assumed): as above

Chain of Tissue Factor Pathway Inhibitor (TFPI) (P10646 29-304 limits assumed): as above

Turning to “Ac-SGYASFPLAVQLHVSKRSKEMALARAYYKTS-NH2 (SEQ ID NO: 2021) [JBT0685]”, the “Extrinsic Tenase Inhibition assay | % Inhibition @ […]” value in the series with TFPI [1] stood at 1%. In addition, the “% Inhibition @ […]” value with TFPI [2] is given as 4%.
What is called IC50 is the point on the concentration scale where inhibition reaches its midpoint. Regarding `CC(=O)N[C@@H](Cc1ccccc1)C(=O)N[C@@H](CCC(N)=O)C(=O)N[C@@H](CO)C(=O)N[C@@H](CCCCN)C(=O)NCC(=O)N[C@@H](CC(N)=O)C(=O)N[C@H](C(=O)N[C@@H](Cc1ccccc1)C(=O)N[C@H](C(=O)N[C@@H](Cc1ccccc1)C(=O)NCC(=O)N[C@@H](Cc1ccc(O)cc1)C(=O)N[C@@H](Cc1ccccc1)C(=O)N[C@@H](CCC(=O)O)C(=O)N[C@@H](CCCNC(=N)N)C(=O)N[C@@H](CC(C)C)C(=O)N[C@@H](CCCNC(=N)N)C(=O)N[C@@H](C)C(=O)N[C@@H](CCCCN)C(=O)N[C@H](CC(N)=O)CC(C)C)C(C)C)C(C)C` [JBT0534 | 204] (Ac-FQSKGNVFVFGYFERLRAK[β3hL]-NH2), the IC50 at TFPI [3] is 84 nM.
“Ac-SGYASFPLAVQLHVSKRSKEMALARLAYKTS-NH2 (SEQ ID NO: 2140) [JBT0686]”: the “Extrinsic Tenase Inhibition assay | % Inhibition @ […]” value with TFPI [1] is on record as 1%. Besides, in the series with TFPI [2], the “% Inhibition @ […]” value is 3%.
For orientation: amount remaining means the share of the starting amount still present when the sample was taken. Turning to `CC(=O)N[C@@H](Cc1ccccc1)C(=O)N[C@@H](CCC(N)=O)C(=O)N[C@@H](CO)C(=O)N[C@@H](CCCCN)C(=O)N1CCC[C@@H]1C(=O)N[C@@H](CC(N)=O)C(=O)N[C@H](C(=O)N[C@@H](Cc1cnc[nH]1)C(=O)N[C@H](C(=O)N[C@@H](CC(=O)O)C(=O)NCC(=O)N[C@@H](Cc1ccc(O)cc1)C(=O)N[C@@H](Cc1ccccc1)C(=O)N[C@@H](CCC(=O)O)C(=O)N[C@@H](CCCNC(=N)N)C(=O)N[C@@H](CC(C)C)C(=O)NC(C)(C)C(=O)N[C@@H](C)C(=O)N[C@@H](CCCCN)C(=O)N[C@@H](CC(C)C)C(N)=O)C(C)(C)C)C(C)C` [JBT2431] (Ac-FQSK[dP]NVH[Tle]DGYFERL[Aib]AKL-NH2), the share remaining at 24 h in series [4] stood at 82%.
In the case of `CC(=O)N[C@@H](Cc1ccccc1)C(=O)N[C@@H](CCC(N)=O)C(=O)N[C@@H](CO)C(=O)N[C@@H](CCCCN)C(=O)N(C)CC(=O)N[C@@H](CC(N)=O)C(=O)N[C@H](C(=O)N[C@@H](Cc1ccccc1)C(=O)N[C@H](C(=O)N[C@@H](CC(=O)O)C(=O)NCC(=O)N[C@@H](Cc1ccc(O)cc1)C(=O)N[C@@H](Cc1ccccc1)C(=O)N[C@@H](CCC(=O)O)C(=O)N[C@@H](CCCNC(=N)N)C(=O)N[C@@H](CC(C)C)C(=O)NC(C)(C)C(=O)N[C@@H](C)C(=O)N[C@@H](CCCCN)C(=O)N[C@@H](CC(C)C)C(N)=O)C(C)C)C(C)C` [JBT1584], in series [4] (human plasma), the “Plasma Stability (half life in minutes) human” value is >2 h.
In the case of “Ac-SGYASFPLAVQLHVSKRAKEMALARLYYKTS-NH2 (SEQ ID NO: 2009) [JBT0677]”, the “Extrinsic Tenase Inhibition assay | % Inhibition @ […]” value in the series with TFPI [1] was determined as 2%. Besides, the “% Inhibition @ […]” value in the series with TFPI [2] turned out to be 4%.
For “Ac-SGYASFPLAVQLHVAKRSKEMALARLYYKTS-NH2 (SEQ ID NO: 2008) [JBT0674]”, in that order: 5% and 10%.
In the case of `CCN1C(=O)CC(SC[C@H](NC(=O)[C@H]2CCCN2C(=O)[C@H](CCCCN)NC(=O)[C@H](CO)NC(=O)[C@H](CCC(N)=O)NC(=O)[C@H](Cc2ccccc2)NC(C)=O)C(=O)N[C@H](C(=O)N[C@@H](Cc2c[nH]cn2)C(=O)N[C@H](C(=O)N[C@@H](CC(=O)O)C(=O)N[C@H](C)C(=O)N[C@@H](Cc2ccc(O)cc2)C(=O)N[C@@H](Cc2csc3ccccc23)C(=O)N[C@@H](CCC(=O)O)C(=O)N[C@@H](CCCNC(=N)N)C(=O)N[C@@H](CC(C)C)C(=O)NC(C)(C)C(=O)N[C@@H](C)C(=O)N[C@@H](CCCCN)C(=O)N[C@@H](CC(C)C)C(N)=O)C(C)(C)C)C(C)C)C1=O` (stereo partly shown) [JBT2502 | 4217, Ac-FQSKp-C(NEM)-VH-Tle-DaY-Bta-ERL-Aib-AKL-NH2] (Ac-FQSK[dP]C(Succinimide(1-Et,3-yl))VH[Tle]D[dA]Y[Bta]ERL[Aib]AKL-NH2), in series [5], half-maximal inhibition (IC50) was put at 4.1 nM.
In series [5], `CC(=O)N[C@@H](Cc1ccccc1)C(=O)N[C@@H](CCC(N)=O)C(=O)N[C@@H](CO)C(=O)N[C@@H](CCCCN)C(=O)N1CCC[C@@H]1C(=O)N[C@@H](CC(N)=O)C(=O)N[C@H](C(=O)N[C@@H](Cc1c[nH]cn1)C(=O)N[C@H](C(=O)N1CCC[C@H]1C(=O)N[C@@H]1CSSCC[C@@H](C(=O)N[C@@H](CCCNC(=N)N)C(=O)N[C@@H](CC(C)C)C(=O)NC(C)(C)C(=O)N[C@@H](C)C(=O)N[C@@H](CCCCN)C(=O)N[C@@H](CC(C)C)C(N)=O)NC(=O)[C@H](Cc2csc3ccccc23)NC(=O)[C@H](Cc2ccc(O)cc2)NC1=O)C(C)C)C(C)C` [JBT2518 | 4233, Ac-FQSKpNVHVPcY-Bta--Hcy-RL-Aib-AKL-NH2] (Ac-FQSK[dP]NVHVP[dC]Y[Bta][hCys]RL[Aib]AKL-NH2; disulfide 11-14) returned an IC50 of 10.8 nM.
`CSCC[C@H](NC(=O)[C@H](CCC(=O)O)NC(=O)[C@H](CCCCN)NC(=O)[C@H](CO)NC(=O)[C@H](CCCNC(=N)N)NC(=O)[C@H](CCCCN)NC(=O)[C@H](CO)NC(=O)[C@@H](NC(=O)[C@H](Cc1c[nH]cn1)NC(=O)[C@H](CC(C)C)NC(=O)[C@H](CCC(N)=O)NC(=O)[C@@H](NC(=O)[C@H](C)NC(=O)[C@H](CC(C)C)NC(=O)[C@@H]1CCCN1C(=O)[C@H](Cc1ccccc1)NC(=O)[C@H](CO)NC(=O)[C@H](C)NC(=O)[C@H](Cc1ccc(O)cc1)NC(=O)CNC(=O)[C@H](CO)NC(C)=O)C(C)C)C(C)C)C(=O)N[C@@H](C)C(=O)N[C@@H](CC(C)C)C(=O)N[C@@H](C)C(=O)N[C@@H](CCCNC(=N)N)C(=O)N[C@@H](CC(C)C)C(=O)N[C@@H](C)C(=O)N[C@@H](Cc1ccc(O)cc1)C(=O)N[C@@H](CCCCN)C(=O)N[C@H](C(=O)N[C@@H](CO)C(N)=O)[C@@H](C)O` [JBT0686 | 2140] (Ac-SGYASFPLAVQLHVSKRSKEMALARLAYKTS-NH2) came in with an IC50 against TFPI [6] of 13500 nM.
As for `CC(=O)N[C@@H](Cc1ccccc1)C(=O)N[C@@H](CCC(N)=O)C(=O)N[C@@H](CO)C(=O)N[C@@H](CCCCN)C(=O)N1CCC[C@@H]1C(=O)N[C@@H](CC(N)=O)C(=O)N[C@H](C(=O)N[C@@H](Cc1cnc[nH]1)C(=O)N[C@H](C(=O)N1CCC[C@H]1C(=O)NCC(=O)N[C@@H](Cc1ccc(O)cc1)C(=O)N[C@@H](Cc1ccccc1)C(=O)N[C@@H](CCC(=O)O)C(=O)N[C@@H](CCCNC(=N)N)C(=O)N[C@@H](CC(C)C)C(=O)NC(C)(C)C(=O)N[C@@H](C)C(=O)N[C@@H](CCCCN)C(=O)N[C@@H](CC(C)C)C(N)=O)C(C)C)C(C)C` [JBT2432], the fraction remaining at 24 h in series [4] was determined as 76%.
In the case of `CSCC[C@H](NC(=O)[C@H](CCC(=O)O)NC(=O)[C@H](CCCCN)NC(=O)[C@H](CO)NC(=O)[C@H](CCCNC(=N)N)NC(=O)[C@H](CCCCN)NC(=O)[C@H](CO)NC(=O)[C@@H](NC(=O)[C@H](Cc1c[nH]cn1)NC(=O)[C@H](CC(C)C)NC(=O)[C@H](CCC(N)=O)NC(=O)[C@@H](NC(=O)[C@H](C)NC(=O)[C@H](CC(C)C)NC(=O)[C@@H]1CCCN1C(=O)[C@H](Cc1ccccc1)NC(=O)[C@H](CO)NC(=O)[C@H](C)NC(=O)[C@H](C)NC(=O)CNC(=O)[C@H](CO)NC(C)=O)C(C)C)C(C)C)C(=O)N[C@@H](C)C(=O)N[C@@H](CC(C)C)C(=O)N[C@@H](C)C(=O)N[C@@H](CCCNC(=N)N)C(=O)N[C@@H](CC(C)C)C(=O)N[C@@H](Cc1ccc(O)cc1)C(=O)N[C@@H](Cc1ccc(O)cc1)C(=O)N[C@@H](CCCCN)C(=O)N[C@H](C(=O)N[C@@H](CO)C(N)=O)[C@@H](C)O` [JBT0662 | 2131] (Ac-SGAASFPLAVQLHVSKRSKEMALARLYYKTS-NH2), half-maximal inhibition against TFPI [6] (IC50) was put at 13800 nM.
In the case of “Ac-SGYASFPLAVQLHVSKASKEMALARLYYKTS-NH2 (SEQ ID NO: 2137) [JBT0676]”, in the series with TFPI [1], the “Extrinsic Tenase Inhibition assay | % Inhibition @ […]” value stood at 1%. Besides, the “% Inhibition @ […]” value in the series with TFPI [2] was 0%.
The corresponding values for “Ac-SGYASFPLAVQLHVSARSKEMALARLYYKTS-NH2 (SEQ ID NO: 2136) [JBT0675]” are 7% and 0%.
Turning to `CSCC[C@H](NC(=O)[C@H](CCC(=O)O)NC(=O)[C@H](CCCCN)NC(=O)[C@H](CO)NC(=O)[C@H](CCCNC(=N)N)NC(=O)[C@H](CCCCN)NC(=O)[C@H](CO)NC(=O)[C@@H](NC(=O)[C@H](Cc1c[nH]cn1)NC(=O)[C@H](CC(C)C)NC(=O)[C@H](CCC(N)=O)NC(=O)[C@@H](NC(=O)[C@H](C)NC(=O)[C@H](CC(C)C)NC(=O)[C@@H]1CCCN1C(=O)[C@H](Cc1ccccc1)NC(=O)[C@H](CO)NC(=O)[C@H](C)NC(=O)[C@H](Cc1ccc(O)cc1)NC(=O)CNC(=O)[C@H](CO)NC(=O)[C@H](CO)NC(=O)CN)C(C)C)C(C)C)C(=O)N[C@@H](C)C(=O)N[C@@H](CC(C)C)C(=O)N[C@@H](C)C(=O)N[C@@H](CCCNC(=N)N)C(=O)N[C@@H](CC(C)C)C(=O)N[C@@H](Cc1ccc(O)cc1)C(=O)N[C@@H](Cc1ccc(O)cc1)C(=O)N[C@@H](CCCCN)C(=O)N[C@H](C(=O)N[C@@H](CO)C(=O)O)[C@@H](C)O` [JBT0788] (H-GSSGYASFPLAVQLHVSKRSKEMALARLYYKTS-OH), the IC50 at TFPI [6] came out at 16200 nM.
`CC(=O)N[C@@H](Cc1ccccc1)C(=O)N[C@@H](CCC(N)=O)C(=O)N[C@@H](CO)C(=O)N[C@@H](CCCCN)C(=O)N1CCC[C@@H]1C(=O)N[C@@H](CC(N)=O)C(=O)N[C@H](C(=O)N[C@@H](Cc1c[nH]cn1)C(=O)N[C@H](C(=O)N1CCC[C@H]1C(=O)N[C@H](C)C(=O)N[C@@H](Cc1ccc(O)cc1)C(=O)N[C@@H](Cc1csc2ccccc12)C(=O)N[C@@H](CCC(=O)O)C(=O)N[C@@H](CCCNC(=N)N)C(=O)N[C@@H](CC(C)C)C(=O)NC(C)(C)C(=O)N[C@@H]1CSSCCNC(=O)[C@H](CC(C)C)NC(=O)[C@H](CCCCN)NC1=O)C(C)C)C(C)C` [JBT2517 | 4232, Ac-FQSKpNVHVPaY-Bta-ERL-Aib-cKL-Cea-] (Ac-FQSK[dP]NVHVP[dA]Y[Bta]ERL[Aib][dC]KL-Cysteamide; disulfide 18-C) had an IC50 in series [5] of 269 nM.
